Data reported in article PMC6338969, “Aptamer Conformation Switching-Induced Two-Stage Amplification for Fluorescent Detection of Proteins”.

Tests used:
[1] = target: carcino-embryonic antigen (CEA) (UniProt P06731 35-685); assay: molecular beacon fluorescence with amplification; 0.1 mg/mL CEA; Aptamer + protein 15 min at 37 °C, then NEB buffer (pH 7.9) with Klenow exo- buffer, 37 °C, 2 h; 1 uM aptamer, 1 uM beacon, 2.5 uM primer, 2 mM dNTPs, Klenow exo- and Nt.BbvCI 1 U/uL each; salt not stated; details: protein: commercial; Y-shaped complex with target
[2] = target: prostate-specific antigen (PSA) (UniProt P07288 25-261); assay: molecular beacon fluorescence with amplification; 0.1 mg/mL PSA; Aptamer + protein 15 min at 37 °C, then NEB buffer (pH 7.9) with Klenow exo- buffer, 37 °C, 2 h; 1 uM aptamer, 1 uM beacon, 2.5 uM primer, 2 mM dNTPs, Klenow exo- and Nt.BbvCI 1 U/uL each; salt not stated; details: protein: commercial; Y-shaped complex with target
PDGF-BB = PDGF-BB (UniProt P01127 82-190); assay: molecular beacon fluorescence with amplification; 1.0 ug/mL PDGF-BB; Aptamer + protein 15 min at 37 °C, then NEB buffer (pH 7.9) with Klenow exo- buffer, 37 °C, 2 h; 1 uM aptamer, 1 uM beacon, 2.5 uM primer, 2 mM dNTPs, Klenow exo- and Nt.BbvCI 1 U/uL each; salt not stated; details: protein: commercial; chain copies: 2
PDGF-BB, sequence (P01127 82-190): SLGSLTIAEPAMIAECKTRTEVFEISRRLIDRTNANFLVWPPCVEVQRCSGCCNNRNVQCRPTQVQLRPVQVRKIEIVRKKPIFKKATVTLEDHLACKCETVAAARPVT

carcino-embryonic antigen (CEA), sequence (P06731 35-685): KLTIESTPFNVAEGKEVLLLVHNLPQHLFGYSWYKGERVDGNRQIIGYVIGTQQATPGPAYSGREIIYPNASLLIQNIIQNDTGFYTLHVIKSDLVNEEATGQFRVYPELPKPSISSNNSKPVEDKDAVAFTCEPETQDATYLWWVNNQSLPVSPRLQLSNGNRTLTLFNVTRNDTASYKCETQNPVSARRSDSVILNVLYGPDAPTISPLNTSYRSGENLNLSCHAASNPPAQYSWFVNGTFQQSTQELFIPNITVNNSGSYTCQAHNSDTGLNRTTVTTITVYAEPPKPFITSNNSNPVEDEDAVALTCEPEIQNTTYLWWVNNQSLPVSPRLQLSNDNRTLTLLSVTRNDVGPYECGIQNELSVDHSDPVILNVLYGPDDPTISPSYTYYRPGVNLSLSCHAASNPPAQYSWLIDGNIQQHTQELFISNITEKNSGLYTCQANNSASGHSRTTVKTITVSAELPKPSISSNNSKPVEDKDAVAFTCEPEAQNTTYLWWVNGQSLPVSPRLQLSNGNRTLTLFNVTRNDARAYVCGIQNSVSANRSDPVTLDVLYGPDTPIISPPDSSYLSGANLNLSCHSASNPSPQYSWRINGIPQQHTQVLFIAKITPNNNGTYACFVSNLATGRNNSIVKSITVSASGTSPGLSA
prostate-specific antigen (PSA), sequence (P07288 25-261): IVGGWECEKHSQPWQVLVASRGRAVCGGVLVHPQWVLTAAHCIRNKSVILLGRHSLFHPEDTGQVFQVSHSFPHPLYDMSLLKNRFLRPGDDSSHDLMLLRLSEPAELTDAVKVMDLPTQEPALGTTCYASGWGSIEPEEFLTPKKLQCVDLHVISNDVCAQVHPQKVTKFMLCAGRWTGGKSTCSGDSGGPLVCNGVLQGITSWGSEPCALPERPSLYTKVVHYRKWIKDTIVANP

| Binder | binding result [1] | binding result [2] | binding result (PDGF-BB) |
| --- | --- | --- | --- |
| PDGF-BB DNA aptamer (switch) (structured_DNA) DNA: TGCACCTCAGCAGCAGGCTACGGCACGTAGAGCATCACCATGATCCTGCATCCGAGCAGGAACG | no binding | no binding |  |
| Control DNA aptamer (ssDNA) DNA: TGCACCTCAGCATTTCCGTGGTAGGGCAGGTTGGGGTGATTTCTATTCAATCCGAGCAGGAACG |  |  | no binding |
